From patent US20090304706A1

Target: human CD40 (human) (UniProt P25942)
Experiment: Biacore (SPR)

Sequence of UniProt P25942 (P25942 20-193 limits assumed): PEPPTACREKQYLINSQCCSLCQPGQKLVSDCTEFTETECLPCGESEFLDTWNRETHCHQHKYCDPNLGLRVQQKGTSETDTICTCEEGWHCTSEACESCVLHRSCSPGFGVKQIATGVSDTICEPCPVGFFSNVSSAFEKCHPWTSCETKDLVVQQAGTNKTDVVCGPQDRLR

Molecule | Kd
monoclonal antibody CHIR-12.12 | 0.5 nM
monoclonal antibody CHIR-5.9 (antibody, human IgG1, kappa, V domains shown) VH: EVQLVQSGAEVKKPGESLKISCKGSGYSFTSYWIGWVRQMPGKGLEWMGIIYPGDSDTRYSPSFQGQVTISADKSISTAYLQWSSLKASDTAMYYCARGTAAGRDYYYYYGMDVWGQGTTVTVSS VL: AIVMTQPPLSSPVTLGQPASISCRSSQSLVHSDGNTYLNWLQQRPGQPPRLLIYKFFRRLSGVPDRFSGSGAGTDFTLKISRVEAEDVGVYYCMQVTQFPHTFGQGTRLEIKR | 12 nM
